Test [1] deals with T1, GST-IL-33 (mature form of interleukin 33, residues 112-270) (human, UniProt O95760).
T1 construct: Interleukin-33, human, mature form / IL-1-like cytokine domain, residues 112-270; Synthesised gene in the parallel GST-2 vector; also called GST-IL-33 WT; GST-IL-33_(112)-270; source: E. coli BL21 (DE3), purified (Glutathione Sepharose 4B); not shown: GST, N-terminal, kept
The test is described as follows: ELISA; E. coli cell lysates containing overexpressed His6-tagged scFvs against GST-IL-33; the text says ELISA, the legend 'kinetic analysis'; the methods tell of lysates only for BLI (BLItz; lysate scFv on Ni-NTA biosensors, GST-IL-33 at 2, 1, 0.5 and 0.25 uM, Kd = koff/kon). Particulars: one partner purified.

Test [2] concerns the target T1, GST-IL-33 (mature form of interleukin …). The test is described as follows: pull-down; 4 uM GST-IL-33 on Glutathione Sepharose 4B, then 4 uM ST2-Fc, then C2_2E12 (0.4, 4, 40, 400 uM), 30 min at 4 C each step; 50 mM Tris-HCl pH 7.5, 150 mM NaCl; immunoblot (anti-ST2, anti-GST, anti-His6), bands quantified with ImageJ. Particulars: both partners purified.
Test [3] has the same target. Put plainly: ELISA; GST-IL-33 coated on the plate; serial dilutions of purified scFv (about 8 ng/mL to 0.8 mg/mL), ambient temperature 1 h, PBST; anti-HA-HRP detection, OD450; repeated three times. Particulars: both partners purified.
For test [4], the target named is T2, ST2-Fc fusion protein (ectodomain of ST2, residues 19-321, and Fc from human IgG) (UniProt Q01638 19-321).
T2 construct: Suppressor of tumorigenicity 2 (ST2) / interleukin 1 receptor-like 1 (IL1RL1), ectodomain, residues 19-321; Synthesised gene in the pSF vector; also called sST2; IL1RL1; source: Expi293F, transfected, purified from supernatant (protein A agarose)
T2 sequence (looked up): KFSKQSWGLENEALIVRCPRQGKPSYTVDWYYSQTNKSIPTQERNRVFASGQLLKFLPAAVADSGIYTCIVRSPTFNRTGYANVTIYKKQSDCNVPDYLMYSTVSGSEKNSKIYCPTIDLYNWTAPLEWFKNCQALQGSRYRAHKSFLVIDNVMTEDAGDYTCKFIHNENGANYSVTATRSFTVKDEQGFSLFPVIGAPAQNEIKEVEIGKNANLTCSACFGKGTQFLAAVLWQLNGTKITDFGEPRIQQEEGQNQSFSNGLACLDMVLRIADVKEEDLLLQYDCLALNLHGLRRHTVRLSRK
Put plainly: pull-down; 4 uM GST-IL-33 on Glutathione Sepharose 4B, then 4 uM ST2-Fc, then C2_2E12 (0.4, 4, 40, 400 uM), 30 min at 4 C each step; 50 mM Tris-HCl pH 7.5, 150 mM NaCl; immunoblot (anti-ST2, anti-GST, anti-His6), bands quantified with ImageJ. Particulars: both partners purified.

B1: C2_2E1 (scFv, V domains shown)
VH: EVQLLESGGGLVQPGGSLRLSCAASGFTFSSYYMSWVRQAPGRGLEWVSAISPGSSNKYYADSVKGRFTISRDNSKNTLYLQMNSLRAEDTAVYYCARMTSSFDYWGQGTLVTVSS
VL: QSVLTQPPSASGTPGQRVTISCSGSSSNIGNNDVSWYQQLPGTAPKLLIYSDSQRPSGVPDRFSGSKSGTSASLAISGLRSEDEADYYCGSWDYSLSAYVFGGGTKLTVL
notes: selected from a synthetic human scFv library by phage display; also called anti-IL-33 scFv clone C2_2E1; source: E. coli BL21 (DE3), in cell lysate; purified (Ni-NTA, SEC)
The molecule B1 returned a Kd in test [1] of 35 nM.

B2: C2_2A10 (scFv, V domains shown)
VH: EVQLLESGGGLVQPGGSLRLSCAASGFTFSSYYMSWVRQAPGKGLEWVSAISPGSSNKYYADSVKGRFTISRDNSKNTLYLQMNSLGAEDTAVYYCAKLLTGFDYWGQGTLVTVSS
VL: QSVLTQPPSASGTPGQRVTISCSGSSSNIGNNAVSWYQQLPGTAPKLLIYDDNHRPSGVPDRFSGSKSGTSASLAISGLRSEDEADYYCGTWDSSLSAYVFGGGTKLTVL
notes: selected from a synthetic human scFv library by phage display; also called anti-IL-33 scFv clone C2_2A10; source: E. coli BL21 (DE3), in cell lysate; purified (Ni-NTA, SEC)
Regarding B2, in test [1], the Kd turned out to be 57 nM.

B3: C1_1E1 (scFv, V domains shown)
VH: EVQLLESGGGLVQPGGSLRLSCAASGFTFSSYYMSWVRQAPGKGLEWVSAISPGSSNKYYADSVKGRFTISRDNSKNTLYLQMNSLRAEDTAVYYCAKLTSAFDYWGQGTLVTVSS
VL: QSVLTQPPSASGTPGQRVTISCTGSSSNIGSNDVTWYQQLPGTAPKLLIYSDNKRPSGVPDRFSGSKSGTSASLAISGLRSEEEADYYCGAWDSSLSGYVFGGGTKLTVL
notes: selected from a synthetic human scFv library by phage display; also called anti-IL-33 scFv clone C1_1E1; source: E. coli BL21 (DE3), in cell lysate; purified (Ni-NTA, SEC)
In turn, B3 came in with a Kd in test [1] of 48 nM.

B4: C2_2H5 (scFv, V domains shown)
VH: EVQLLESGGGLVQPGGSLRLSCAASGFTFSSYYMSWVRQAPGKGLEWVSAISPGSSNKYYADSVKGQFTISRDNSKNTLYLQMNSLRAEDTAVYYCAKLSQSFDYWGQGTLVTVSS
VL: QSVLTQPPSASGTPGQRVTISCTGSSSNIGNNGISWYQQLPGTAPKLLIYDNSHRPSGVPDRFSGSKSGTSASLAISGLRSEDETDYYCASWDSSLSGYVFGGGTKLTVL
notes: selected from a synthetic human scFv library by phage display; also called anti-IL-33 scFv clone C2_2H5; source: E. coli BL21 (DE3), in cell lysate; purified (Ni-NTA, SEC)
In turn, B4 displayed a Kd in test [1] of 31 nM.

B5: C2_1D5 (scFv, V domains shown)
VH: EVQLLESGGGLVQPGGSLRLSCAASGFTFSSYYMSWVRQAPGKGLEWVSAISPGSSNKYYADSVKGRFTISRDNSKNTLYLQMNSLRAEDTAVYYCARLLSAFDYWGQGTLVTVSS
VL: QSVLTQPPSASGTPGQRVTISCSGSSSNIGSNDVSWYQQLPGTAPKLLIYSDSNRPSGVPDRFSGSKSGTSASLAISGLRSEDEADYYCGAWDSSLSGYVFGGGTKLTVL
notes: selected from a synthetic human scFv library by phage display; also called anti-IL-33 scFv clone C2_1D5; source: E. coli BL21 (DE3), in cell lysate; purified (Ni-NTA, SEC)
On to B5, for which, in test [1], binding was characterised by a dissociation constant (Kd) of 36 nM.

B6: C2_2E12 (scFv, V domains shown)
VH: EVQLLESGGGLVQPGGSLRLSCAASGFTFSSYYMSWVRQAPGKGLEWVSAISPGSSNKYYADSVKGRFTISRDNSKNTLYLQMNSLRAEDTAVYYCARLTLSFDYWGQGTPVTVSS
VL: QSVLTQPPSASGTPGQRVTISCSGSSSNIGSNDVSWYQQLPGTAPKLLIYADSKRPSGVPDRFSGSKSGTSASLAISGLRSEDEADYYCASWDSSLSAYVFGGGTKLTVL
notes: selected from a synthetic human scFv library by phage display; Fab and IgG formats were made but no result is told for them; also called anti-IL-33 scFv clone C2_2E12; C2_2E12 antibody; source: E. coli BL21 (DE3), in cell lysate and purified (Ni-NTA, SEC); scFv also expressed in Expi293F, purified (Ni-NTA, SEC)
Consider B6, for which the “IL-33:ST2 interaction left at 100-fold molar excess of C2_2E12 (ST2-Fc band relative to that with 0.4 uM C2_2E12)” value in test [2] is approximately 40%. Besides, the Kd in test [3] turned out to be 38 nM; in test [1], 28 nM.

B7: GST-IL-33 (mature form of interleukin 33, residues 112-270) (domain or fragment, human, UniProt O95760 112-270, looked up)
chain: SITGISPITEYLASLSTYNDQSITFALEDESYEIYVEDLKKDEKKDKVLLSYYESQHPSNESGDGVDGKMLMVTLSPTKDFWLHANNKEHSVELHKCEKPLPDQAFFVLHNMHSNCVSFECKTDPGVFIGVKDNHLALIKVDSSENLCTENILFKLSET
notes: Interleukin-33, human, mature form / IL-1-like cytokine domain, residues 112-270; Synthesised gene in the parallel GST-2 vector; also called GST-IL-33 WT; GST-IL-33_(112)-270; source: E. coli BL21 (DE3), purified (Glutathione Sepharose 4B); not shown: GST, N-terminal, kept
B7: in test [4], the binding result is given as “binds”.

For the origin of these results see publication PMC7554688, “Blocking of the IL-33/ST2 Signaling Axis by a Single-Chain Antibody Variable Fragment (scFv) Specific to IL-33 with a Defined Epitope” (International Journal of Molecular Sciences, 2020).
